Read-outs that look alike come from different tables or passages of the source.

Assay [1] has as its target T1, canine CTLA-4 (cCTLA-4) recombinant protein (canine, UniProt Q9XSI1 38-161, limits assumed).
T1 construct: also called canine Cytotoxic T-Lymphocyte-Associated protein 4; CD152
T1 chain: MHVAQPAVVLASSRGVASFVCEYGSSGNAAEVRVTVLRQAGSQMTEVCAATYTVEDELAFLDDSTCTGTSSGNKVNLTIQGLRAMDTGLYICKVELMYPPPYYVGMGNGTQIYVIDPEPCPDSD
The assay is described as follows: ELISA on coated cCTLA-4, OD450/540 ('xCTLA4 ELISA', Example 7). On the technique in general: ELISA stands for enzyme-linked immunosorbent assay.

Assay [2] concerns the target T1, canine CTLA-4 (cCTLA-4) recombinant …. The assay is described as follows: ELISA: cCTLA-4 coated at 200 ng/well, three-fold antibody dilutions, HRP anti-canine IgG Fc, OD450/540 (Example 3).
For assay [3] the target is unchanged. As to the kind of experiment: blocking ELISA: cCTLA-4 coated at 200 ng/well, antibody dilutions mixed with 100 ng/well biotinylated canine CD86 (the blocked ligand), streptavidin-HRP, OD450/540 (Example 4).
Experimental: (§1) Coat 200 ng/well cCTLA-4 in an immunoplate and incubate the plate at 4° C. overnight. […] Wash the plate 3 times by PBS with 0.05% Tween 20 (PBST). […] Block the plate with 0.5% BSA in PBS for 45-60 min at room temperature. […] Wash the plate 3 times by PBST. […] Next mixed with the antibodies. […] Transferred the mixture into each column or row of the immunoplate, and incubated the plate for 45-60 min at room temperature. […] Washed the plate 3 times with PBST. […] Added 1:2000 diluted horseradish peroxidase conjugated streptavidin into each well of the plate, and incubated the plate for 45-60 min at room temperature. […] Washed the plate 3 times with PBST. […] Added the TMB Substrate into each well of the plate, and incubated the plate for 10 to 15 minutes at room temperature to allow for color development. […] Added 100 μL of 1.5 M phosphoric acid into each well to stop the reaction. […] Read the plate at 450 nm with 540 nm reference wavelength.
The target is the same in assay [4]. The assay is described as follows: blocking ELISA: cCTLA-4 coated at 200 ng/well, antibody dilutions mixed with 100 ng/well biotinylated canine CD80 (the blocked ligand), streptavidin-HRP, OD450/540 (Example 4).
Experimental: as §1
Assay [5] deals with T2, canine CTLA-4 expressed on CHO-K1 cells (canine, UniProt Q9XSI1 38-223).
T2 construct: also called CHO-cCTLA-4; CHO-K1-cCTLA-4 cells
T2 chain: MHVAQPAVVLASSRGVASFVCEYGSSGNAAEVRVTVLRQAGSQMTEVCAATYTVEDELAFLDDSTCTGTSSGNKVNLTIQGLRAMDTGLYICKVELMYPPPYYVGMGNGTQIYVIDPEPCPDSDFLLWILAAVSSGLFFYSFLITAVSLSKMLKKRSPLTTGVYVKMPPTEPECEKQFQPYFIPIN
As to the kind of experiment: flow cytometry on CHO-K1 cells stably expressing cCTLA-4, labelled anti-canine IgG, FL4-H histogram (Example 5); antibody concentration not given.

Assay [6] concerns the target T2, canine CTLA-4 expressed on CHO-K1 cells. The assay is described as above.
Text: (§2) A CHO-K1 cell line stably expressing cCTLA-4 was generated. The cells were used to test antibody binding and blocking activity in FACS flow assay. […] Grew CHO-K1-cCTLA-4 cells in the culture medium in T-75 flask. The cells are passaged when the cell confluency reaches to 90%. […] Detached the cells by Trypsin-EDTA solution, resuspended the cells in culture medium, and counted the viable cells with more than 95% viability. […] Spun down the cells, aspirated the supernatant, then resuspended the cells into FACS buffer (Thermo Fisher Scientific, Cat #BDB554656) to 1×10⁷ cells/mL. […] Added antibody into 100 μL of the cells, incubated at room temperature for 30 min with gentle shaking. […] Washed the cells by 3×250 μL of FACS buffer, and resuspended the cells into 100 μL FACS buffer. […] Stained the cells with FITC conjugated anti-canine IgG, incubated at room temperature for 30 min with gentle shaking. […] Washed the cells with 3×250 μL of FACS buffer and resuspended the cells into 500 μL FACS buffer. […] Read 10,000 cells by flow cytometry.
For assay [7] the target is unchanged. Described as above.
Text: as §2
Assay [8] shares this target. The description is as above.
Text: as §2

B1: Mouse-canine chimeric antibody 39A11 (antibody, V domains shown)
VH: EVKLVESGGGLVQPGGSLSLSCATSGFTFSDYYMSWVRQSPGKALEWMGFIRNKANGYTTEYSASLKGRFTISRDNSQSILYLQMNVLRAEDSATYYCVRFGLMYYFDYWGQGTTLTVSS
VL: ENVLIQSPAIMSASPGEKVTMTCRASSSVSSSYLHWYQQKSGASPKLWIFSTSNLASGVPARFSGSGSGTSYSLTINSVEAEDAATYYCQQYSGLPLTFGGGTKLEIKR
notes: Mouse variable regions fused to canine constant heavy chain and canine kappa; HEK 293, protein A; also called chimera of 39A11
Consider B1, for which the “EC50 (read off the curve)” value in assay [1] is about 0.004 µg/mL; in assay [2], about 0.009 µg/mL. For the same molecule, the “IC50 (read off the curve)” value is about 0.1 µg/mL in assay [3] and about 0.2 µg/mL in assay [4].

B2: Mouse-canine chimeric antibody 27G12 (antibody, V domains shown)
VH: QIQLVQSGPELKKPGETVKISCKASGYTFTTYGVSWVKQAPGKGLRWMGWINTYSGMPTYVDDFKGRFAFSLETSASTAFLQINNLKNEDTAIYFCARRGISFDYWGQGTTLTVSS
VL: DVLMTQTPLSLPVSLGDHASISCKSSQSIVYINGNTYLEWYLQKPGQSPKLLIYKVSKRFSGVPDRFSGSGSGTDFTLKISRVEAEDLGVYYCFQGSHVPWTFGGGTKLEIKR
notes: Mouse variable regions fused to canine constant heavy chain and canine kappa; HEK 293, protein A
Turning to B2, the “EC50 (read off the curve)” value in assay [2] is about 0.002 µg/mL. Moreover, the binding result in assay [5] is given as “binds”. In addition, the entries for the “IC50 (read off the curve)” value in assay [3] and in assay [4] were about 0.1 µg/mL and about 0.2 µg/mL, respectively.

B3: Mouse-canine chimeric antibody 12B3 (antibody, V domains shown)
VH: QIQLVQSGPELKKPGETVKISCKASGYTFTNYGMNWVKQAPGKGLKWMGWINTYTGEPTYADDFKGRFAFSLETSASTAYLQINNLKNEDMATYFCARRSIYYPYWGQGTTLTVSS
VL: DVLMTQTPLSLPVSLGDQASISCRSSQSIVYSNGNTYLEWYLQKPGQSPKLLIYKVSNRFSGVPDRFSGSGSGTDFTLKISRVEAEDLGVYYCFQGSHVPWTFGGGTKLEIKR
notes: expressed in HEK 293 cells, purified on protein A; also called chimera of 12B3
Turning to B3, the half-maximal effective concentration (EC50 (read off the curve)) was about 0.001 µg/mL in assay [1] and about 0.005 µg/mL in assay [2]. The binding result in assay [6] is “binds”. For the same molecule, the “IC50 (read off the curve)” value in assay [3] and in assay [4] was about 0.1 µg/mL each time.

B4: Mouse-canine chimeric antibody 110E3 (antibody, V domains shown)
VH: QIQLVQSGPELKKPGETVKISCKASGYTFTNYGMNWVKQAPGKGLKWMGWINTYTGEPTYADDFKGRVAFSLETSASTAFLQINNLKNEDTATYFCARRGVRLDYWGQGTTLTVSS
VL: DVLMTQTPLSLPVSLGDQASISCRSSQSIVYISGSTYLEWYLQKPGQSPKLLIYKVSSRFSGVPDRFSGSGSGTDFTLKISRVEAEDLGVYYCFQGSHVPWTFGGGTKLEIKR
notes: as for B2
As for B4, the concentration for a half-maximal effect (EC50 (read off the curve)) in assay [2] is about 0.002 µg/mL. Further, the binding result in assay [7] is reported as “binds”. The entries for the “IC50 (read off the curve)” value in assay [3] and in assay [4] were about 0.1 µg/mL and about 0.2 µg/mL, respectively.

B5: Mouse-canine chimeric antibody 45A9 (antibody, V domains shown)
VH: QIQLVQSGPELKKPGETVKISCKASGYTFTNYGMNWVKQAPGKGLKWMGWINTYTGEPTYADDFKGRFAFSLETSASTAYLQINNLKNEDTATYFCARRGTYYRPWGQGTTLTVSS
VL: DVLMTQTPLSLPVSLGDQASISCRSSQSIVYSHGNTYLEWYLQKPGQSPKVLIYKVSNRFSGVPDRFSGSGSGTDFTLKISRVEAEDLGVYYCFQGSHVPWTFGGGTKLEIKR
notes: as for B2
Consider B5, for which the concentration for a half-maximal effect (EC50 (read off the curve)) in assay [2] is about 0.002 µg/mL. Also, the “IC50 (read off the curve)” value in assay [3] was about 0.1 µg/mL; in assay [4], about 0.2 µg/mL.

B6: Caninized c39A11L3H3 (antibody, V domains shown)
VH: EVKLVESGGDLVKPGGSLRLSCATSGFTFSDYYMSWVRQAPGKALEWMGFIRNKANGYTTEYSASLKGRFTISRDNAKNMLYLQMNSLRAEDTAVYYCVRFGLMYYFDYWGQGTTLTVSS
VL: ENVLTQSPASLSLSPGEKVTITCRASSSVSSSYLHWYQQKPGQSPKLWIFSTSNLASGVPSRFSGSGSGTSYSFTISSLEPEDVAVYYCQQYSGLPLTFGGGTKLELKR
notes: also called caninized 39A11 VL3/VH3
Consider B6, for which the concentration giving a half-maximal response (EC50 (read off the curve)) in assay [1] was about 0.004 µg/mL.

B7: Caninized c39A11L2H3 (antibody, V domains shown)
VH: EVKLVESGGDLVKPGGSLRLSCATSGFTFSDYYMSWVRQAPGKALEWMGFIRNKANGYTTEYSASLKGRFTISRDNAKNMLYLQMNSLRAEDTAVYYCVRFGLMYYFDYWGQGTTLTVSS
VL: ENVLTQSPASLSLSQEEKVTITCRASSSVSSSYLHWYQQKPGQAPKLWIFSTSNLASGVPSRFSGSGSGTDYSFTISSLEPEDVAVYYCQQYSGLPLTFGGGTKLELKR
notes: written here as L2H3; also called caninized 39A11
In the case of B7, the “EC50 (read off the curve)” value in assay [1] was about 0.007 µg/mL.

B8: Caninized c12B3L3H3 (antibody, V domains shown)
VH: EIQLVQSGGDLVKPGGSVRLSCKASGYTFTNYGMNWVKQAPGKGLQWMGWINTYTGEPTYADDFKGRFTFSLDNAKNTAYLQINSLRAEDTAVYFCARRSIYYPYWGQGTTLTVSS
VL: DVLMTQTPLSLSVSPGEPASISCRSSQSIVYSNGNTYLEWYLQKPGQSPKLLIYKVSNRFSGVPDRFSGSGSGTDFTLRISRVEADDAGVYYCFQGSHVPWTFGGGTKLELKR
notes: also called caninized 12B3 VL3/VH3
For B8, the “EC50 (read off the curve)” value in assay [1] is about 0.002 µg/mL.

B9: Caninized c12B3L2H3 (antibody, V domains shown)
VH: EIQLVQSGGDLVKPGGSVRLSCKASGYTFTNYGMNWVKQAPGKGLQWMGWINTYTGEPTYADDFKGRFTFSLDNAKNTAYLQINSLRAEDTAVYFCARRSIYYPYWGQGTTLTVSS
VL: DIVMTQTPLSLSVSPGEPASISCRSSQSIVYSNGNTYLEWYQQKPGQSPKLLIYKVSNRFSGVPDRFSGSGSGTDFTLRISRVEADDAGVYYCFQGSHVPWTFGGGTKLEIKR
notes: also called caninized 12B3
On to B9, for which, in assay [1], the “EC50 (read off the curve)” value is about 0.002 µg/mL.

B10: Mouse-canine chimeric antibody 22A11 (antibody, V domains shown)
VH: QVQLQQPGTELVKPGASVKLSCKASGYTFTSYWMHWVKQRPGQGLEWIGNINPSNGGTRFNEKFKNKATLTEDKSSSTAYMQLSSLTSEDSAVYYCARSNYGSGWAWFAYWGQGTLVTVSA
VL: DIQMNQSPSSLSASLGDTITITCHASQNINVWLSWYQQKPGNIPKLLIYKSSNLHTGVPSRFSGSGSGTGFTLTISSLQPEDIATYYCQQGQSYPWTFGGGTKLEIKR
notes: as for B2
On to B10, for which the “EC50 (read off the curve)” value in assay [2] was about 0.0007 µg/mL. Besides, the binding result in assay [8] was “binds”. Besides, the “IC50 (read off the curve)” value is about 0.3 µg/mL in assay [3] and about 0.2 µg/mL in assay [4].

For orientation: EC50 (read off the curve) means the concentration at which the effect is half-maximal.

Values taken from patent publication US20260125476A1 (INTERVET, published 2026).
